PMC5896931 (Molecular Biology of the Cell, 2018)
One block for each binder: values may come before it.

Tests used:
[1] = target: T1, Aim21 (Altered Inheritance of Mitochondria 21), full length, 6His-SUMO tag cleaved (budding yeast, UniProt P40563 1-679); assay: pull-down
T1 sequence (looked up): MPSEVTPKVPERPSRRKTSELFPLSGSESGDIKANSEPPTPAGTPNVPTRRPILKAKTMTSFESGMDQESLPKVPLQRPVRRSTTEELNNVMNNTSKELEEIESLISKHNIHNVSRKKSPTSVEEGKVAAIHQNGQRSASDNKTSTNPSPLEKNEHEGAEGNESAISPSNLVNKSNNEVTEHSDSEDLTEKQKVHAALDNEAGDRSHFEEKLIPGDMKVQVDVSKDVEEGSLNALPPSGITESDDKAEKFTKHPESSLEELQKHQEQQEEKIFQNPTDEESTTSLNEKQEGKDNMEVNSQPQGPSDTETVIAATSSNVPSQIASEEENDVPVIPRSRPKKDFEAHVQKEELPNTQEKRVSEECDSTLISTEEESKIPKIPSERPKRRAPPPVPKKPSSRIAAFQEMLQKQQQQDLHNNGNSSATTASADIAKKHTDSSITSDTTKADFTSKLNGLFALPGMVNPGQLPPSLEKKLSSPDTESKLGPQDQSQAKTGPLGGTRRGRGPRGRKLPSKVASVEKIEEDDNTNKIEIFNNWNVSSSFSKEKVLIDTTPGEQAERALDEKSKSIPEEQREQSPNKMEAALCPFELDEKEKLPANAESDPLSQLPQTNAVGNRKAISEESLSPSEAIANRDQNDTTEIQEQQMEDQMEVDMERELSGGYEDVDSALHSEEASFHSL

6His-SUMO-Cap2 = target: T2, 6His-SUMO-Cap2 (budding yeast, UniProt P13517 1-287); assay: pull-down
T2 sequence (looked up): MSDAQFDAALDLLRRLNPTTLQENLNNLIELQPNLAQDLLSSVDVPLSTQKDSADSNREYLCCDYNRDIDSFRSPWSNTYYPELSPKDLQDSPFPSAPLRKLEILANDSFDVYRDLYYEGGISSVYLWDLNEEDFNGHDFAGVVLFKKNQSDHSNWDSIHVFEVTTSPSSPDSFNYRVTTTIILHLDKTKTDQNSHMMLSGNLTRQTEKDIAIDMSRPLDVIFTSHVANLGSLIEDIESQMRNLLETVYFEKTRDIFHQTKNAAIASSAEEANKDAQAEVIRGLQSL

binding result [1]: binds
B1: 6His-SUMO-Tda2 (natural protein, budding yeast, UniProt P40045 1-126, looked up)
chain: MSMQIEIKDGRSDNSPLPERKLVTLIQESYDSLKDDNEINLSTESTSNLLIKLVLEKLEKHSSLYKYIASVTTLNIEGLNEENANFSLKNDIGASWESKKDGIFNYKLEDKNNNECYLITILWLHK

binding result (6His-SUMO-Cap2): binds
B2: Cap1, 6His-SUMO tag cleaved (natural protein, budding yeast, UniProt P28495 1-268, looked up)
chain: MSSSKFEEVINKIINDSPPGELREVYDDLIKITSENSKNTILDAIENYNVQNCIPIEVNGNSVIISKYNKEGAKFFDPVNSVIFSVNHLERKGLDIEPYEFTHAKIEKGQLKELHDKLHEYLLQSFPGDVSFAVYPVPEEISKISIIIVSTKYNPNNFWNGHWRSSYIYDLETRELSGQISTQVHYYEDGNVSFQSGKDINQSNVDDVVCTIRDIETNFENDLDLSFFDLNEKQFKALRRRLPVTRSKINWGSAIGSYRLGKNAAEGK
